Test results as given in patent US20220315926.
pKd: −log10 of the molar value. Where two headings read alike, the source gives them in different places.

Columns and labels:
[1] = target: T1, DEN1-NS1 (Nauru/Western Pacific/1974) (Dengue virus 1) (UniProt P17763); experiment: SPR; conditions: Ds unnatural base at both n; biotin-dT in 3' mini-hairpin CGCG(L)AGCG
T1 sequence: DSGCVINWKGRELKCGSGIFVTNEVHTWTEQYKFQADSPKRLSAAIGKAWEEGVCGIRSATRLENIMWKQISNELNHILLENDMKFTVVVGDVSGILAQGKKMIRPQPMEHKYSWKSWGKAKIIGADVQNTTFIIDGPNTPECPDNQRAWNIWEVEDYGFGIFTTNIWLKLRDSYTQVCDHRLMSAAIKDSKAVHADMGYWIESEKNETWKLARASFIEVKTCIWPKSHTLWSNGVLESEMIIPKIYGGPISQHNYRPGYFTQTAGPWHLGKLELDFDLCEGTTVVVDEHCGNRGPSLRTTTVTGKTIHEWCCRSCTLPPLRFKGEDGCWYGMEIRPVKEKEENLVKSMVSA

[2] = target: T2, DEN3-NS1 (Sri Lanka D3/H/IMTSSA-SRI/2000/1266) (Dengue virus 3) (UniProt Q6YMS4); experiment: SPR; conditions: Ds at both n; biotin-dT in 3' mini-hairpin
T2 sequence: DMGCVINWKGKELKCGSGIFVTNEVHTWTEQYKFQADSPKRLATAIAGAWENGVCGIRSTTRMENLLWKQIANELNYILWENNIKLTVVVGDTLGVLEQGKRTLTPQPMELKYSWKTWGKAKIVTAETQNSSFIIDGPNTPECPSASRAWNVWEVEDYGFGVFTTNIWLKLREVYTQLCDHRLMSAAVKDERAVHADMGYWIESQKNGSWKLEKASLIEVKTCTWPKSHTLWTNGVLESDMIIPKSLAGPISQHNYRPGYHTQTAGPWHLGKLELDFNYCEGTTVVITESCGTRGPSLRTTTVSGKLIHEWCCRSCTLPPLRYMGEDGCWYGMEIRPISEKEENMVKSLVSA

[3] = target: T3, DEN4-NS1 (Dominica/814669/1981) (Dengue virus 4) (UniProt P09866); experiment: SPR
T3 sequence: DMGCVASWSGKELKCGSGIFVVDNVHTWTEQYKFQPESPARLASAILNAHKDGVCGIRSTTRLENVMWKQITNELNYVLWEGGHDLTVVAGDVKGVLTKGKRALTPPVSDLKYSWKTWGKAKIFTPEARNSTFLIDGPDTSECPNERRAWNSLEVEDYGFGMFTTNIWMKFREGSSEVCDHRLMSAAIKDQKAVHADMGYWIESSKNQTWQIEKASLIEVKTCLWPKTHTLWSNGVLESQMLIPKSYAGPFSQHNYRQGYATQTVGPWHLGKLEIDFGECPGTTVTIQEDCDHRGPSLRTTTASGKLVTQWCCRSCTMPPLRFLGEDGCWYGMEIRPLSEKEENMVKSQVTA

[4] = target: T4, DEN2-NS1 (Thailand/16681/84) (Dengue virus 2) (UniProt P29990); experiment: SPR
T4 sequence: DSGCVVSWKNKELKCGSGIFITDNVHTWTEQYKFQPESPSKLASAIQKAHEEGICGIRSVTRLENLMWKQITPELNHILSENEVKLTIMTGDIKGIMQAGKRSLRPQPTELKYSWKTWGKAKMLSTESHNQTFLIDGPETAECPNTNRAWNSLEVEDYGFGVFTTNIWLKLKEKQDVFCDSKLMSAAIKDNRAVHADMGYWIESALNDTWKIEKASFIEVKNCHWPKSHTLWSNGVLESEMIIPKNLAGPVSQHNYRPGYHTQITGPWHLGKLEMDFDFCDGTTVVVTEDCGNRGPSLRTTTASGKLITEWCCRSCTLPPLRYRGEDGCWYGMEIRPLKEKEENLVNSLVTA

[5] = target: SIN DEN1-NS1 (Singaporean variant, 96.3% homology) (Dengue virus 1) (UniProt P33478); experiment: SPR; conditions: Ds at both x, 25 C, 150 mM NaCl, 1 mM MgCl2
[6] = target: T4, DEN2-NS1 (Thailand/16681/84) (Dengue virus 2); experiment: EMSA
[7] = target: T3, DEN4-NS1 (Dominica/814669/1981) (Dengue virus 4); experiment: EMSA; conditions: Ds at both x; 5' biotin-dT; 2 M urea gel
[8] = Ds at both n, biotin-dT in 3' mini-hairpin
[9] = two Ds and one diol-Pa, biotin-dT in 3' mini-hairpin

With “CCCCAGACGGACTGGTGTNCTCGGNATGGCCGTCTGGGGCGCGTAGCG [D1-1-48h (AptD1)]” the pKd [1] was 9.74.

“CCGCTTGTCATCTANCCTGGCCNTGTGGTACTGTAACGGCTGACAAGCGGCGCGTAGCG [D3-2-59h (AptD3)]” was tested, and the pKd [2] was 10.24.

For “CGGCGGAGACGTAACGCNTATCAAATCNAAACAGCTTAGGGTCCGCCGCGCGTAGCG [D4-3-57h (AptD4)]”, the pKd [3, 8] was 10.52.

In the case of “CTCCGCTGTCAAACGGNTATCACGGCNACACACCTGCGGACAGCGGAGCGCGTAGCG [D4-1-57h]”, the pKd [3, 8] was 10.54.

Sequence “GACGGTCTACTGGTCCGNCTGGGAACAAGNGGCGGGAGGGANGGGTGTGGGTGCGACAAGCGGAGTAGTTAGACCGTCCGCGTAGCG [D2-1d-87h]” has a pKd [4, 9] of 9.98.

In the case of “GCACTCCATGATATGGTCTACTGAGCGAGACGATGCTGCTAAANTACGCCGTGGTNACGAAGACAGACAAGCGGAGTGTCGCGTAGCG [19D1F1-3]”, the pKd ([5]; biotin-dT in 3' mini-hairpin) was 10.57.

Sequence “GGCTGGTCCGACTGGGAACAAGNGGCGGGAGGGANGGGTGTGGGTGCGACAAGCGGACCAGCCCGCGTAGCG [D2-1d-72h(A) (D2-1d-72h-b)]” has a binding signal ([6]; Ds at position 23, diol-Pa at position 35, biotin-dT in 3' mini-hairpin) of over 40 % shifted.

Work on “GGCTGGTCCGNCTGGGAACAAGNGGCGGGAGGGANGGGTGTGGGTGCGACAAGCGGACCAGCCCGCGTAGCG [AptD2e (Cont-D2, natural-base variant)]” yielded a binding signal [6] of under 10 % shifted.

With “GGCTGGTCCGNCTGGGAACAAGNGGCGGGAGGGANGGGTGTGGGTGCGACAAGCGGACCAGCCCGCGTAGCG [D2-1d-72h (AptD2)]” the pKd ([4]; Ds at positions 11 and 23, diol-Pa at position 35, biotin-dT in 3' mini-hairpin) was 9.98.

Work on “GGCTGGTCCGNCTGGGAACAAGNGGCGGGAGGGANGGGTGTGGGTGCGACAAGCGGACCAGCCCGCGTAGCG [D2-1d-72h-c]” yielded a binding signal ([6]; Ds at 11, diol-Pa at 35, biotin-dT in 3' mini-hairpin) of under 10 % shifted.

“GGCTGGTCCGNCTGGGAACAAGNGGCGGGAGGGANGGGTGTGGGTGCGACAAGCGGACCAGCCCGCGTAGCG [D2-1d-72h-d]” showed a binding signal ([6]; Ds at 11 and 23, biotin-dT in 3' mini-hairpin) of under 10 % shifted.

“GGTCCGNCTGGGAACAAGNGGCGGGAGGGANGGGTGTGGGTGCGACAAGCGGCGCGTAGCG [D2-1d-61h]” showed a binding signal [6, 9] of over 60 % shifted.

Work on “TGATATGGTCTACTGTATAATCCGCNTTCGTCATGTGGNTTGGATCTGGGTCTGGCAGACAAGCGGAGTAGTTAGACC [D4-4-78]” yielded a binding signal [7] of over 60 % shifted.

“TGATATGGTCTACTGTCACANATCGCCGTAAAGNCGAAGAGCTGCGGAATCTAAGGTGACAAGCGGAGTAGTTAGACC [D4-2-78]” showed a binding signal [7] of over 60 % shifted.

For “TGATATGGTCTACTGTCTCAACGGTTGTCAAACGGNTATCACGGCNACACACCTGCGGACAAGCGGAGTAGTTAGACC [D4-1-78]”, the pKd ([3]; Ds at both x, 5' biotin-dT) was 10.21.

In the case of “TGATATGGTCTACTGTGGCGCGAGGGAATCNACGCNTATCAAATANAAACAGCTAATGACAAGCGGAGTAGTTAGACC [D4-3-78]”, the pKd ([3]; Ds at x (three), 5' biotin-dT) was 10.47.

For “TTTTCGCACTCCATGATATGGTCTACTGAGCGAGACGATGCTGCTAAANTACGCCGTGGTNACGAAGACAGACAAGCGGAGTAGTTAGACCGTGAAA [19D1F1 (isolate, AptD1b)]”, the pKd ([5]; 5' biotin) was 11.04.

“TTTTCGCACTCCATGATATGGTCTACTGGTCCGNCTGGGAACAAGNGGCGGGAGGGANGGGTGTGGGTGCGACAAGCGGAGTAGTTAGACCGTCAAA [D2-1-96(3Ds)]” showed a binding signal ([6]; three Ds) of under 10 % shifted.

For “TTTTCGCACTCCATGATATGGTCTACTGGTCCGNCTGGGAACAAGNGGCGGGAGGGANGGGTGTGGGTGCGACAAGCGGAGTAGTTAGACCGTCAAA [D2-1y-96]”, the pKd ([4]; two Ds and one diol-Px, 5' biotin) was 10.39.
